Positions count from the first letter of the chain named.
B1: humanized antibody No. 94 (antibody, human IgG1, kappa)
heavy: QVQLVQSGSELKKPGASVKVSCKASGYTFTDYSMHWVRQAPGQGLKWMGWINTETGEPTYAQGFTGRFVFSLDTSVSTAYLQISSLKAEDTAVYYCARIPLYYYGSRYWYFDVWGQGTTVTVSSASTKGPSVFPLAPSSKSTSGGTAALGCLVKDYFPEPVTVSWNSGALTSGVHTFPAVLQSSGLYSLSSVVTVPSSSLGTQTYICNVNHKPSNTKVDKRVEPKSCDKTHTCPPCPAPPAAAPSVFLFPPKPKDTLMISRTPEVTCVVVDVSHEDPEVQFNWYVDGVEVHNAKTKPREEQFNSTFRVVSVLTVVHQDWLNGKEYKCKVSNKGLPAPIEKTISKTKGQPREPQVYTLPPSREEMTKNQVSLTCLVKGFYPSDIAVEWESNGQPENNYKTTPPMLDSDGSFFLYSKLTVDKSRWQQGNVFSCSVMHEALHNHYTQKSLSLSPG
light: EIVMTQSPATLSVSPGERATLSCRASENIYRNLAWYQQKPGQSPRLLIYAATNLADGIPARFSGSGSGTEYTLTISSLQSEDFAVYYCQHFWGTPWTFGQGTKVEIKRTVAAPSVFIFPPSDEQLKSGTASVVCLLNNFYPREAKVQWKVDNALQSGNSQESVTEQDSKDSTYSLSSTLTLSKADYEKHKVYACEVTHQGLSSPVTKSFNRGEC
notes: human Ig kappa; also called L2-4/HA2
B2: humanized antibody No. 71 (antibody, human IgG1, kappa)
heavy: B1 heavy with V2I
light: B1 light
notes: human Ig kappa; also called L2-4/HA4
B3: humanized antibody No. 73 (antibody, human IgG1, kappa)
heavy: B1 heavy with V2I, Q62D, G63D, T65K
light: B1 light
notes: human Ig kappa; also called L2-4/HK4
B4: humanized antibody No. 93 (antibody, human IgG1, kappa)
heavy: B1 heavy with K46E
light: B1 light
notes: human Ig kappa; also called L2-4/HA1
B5: humanized antibody No. 95 (antibody, human IgG1, kappa)
heavy: B1 heavy with K46E, Q62D, G63D, T65K
light: B1 light
notes: human Ig kappa; also called L2-4/HK1
B6: humanized antibody No. 96 (antibody, human IgG1, kappa)
heavy: B1 heavy with Q62D, G63D, T65K
light: B1 light
notes: human Ig kappa; also called L2-4/HK2
B7: humanized antibody No. 160 (antibody, human IgG2)
heavy: QIQLVQSGSELKKPGASVKVSCKASGYTFTDYSMHWVRQAPGQGLKWMGWINTETGEPTYADDFKGRFVFSLDTSVSTAYLQISSLKAEDTAVYYCARIPLYYYGSRYWYFDVWGQGTTVTVSSASTKGPSVFPLAPSSRSTSESTAALGCLVKDYFPEPVTVSWNSGALTSGVHTFPAVLQSSGLYSLSSVVTVPSSNFGTQTYTCNVDHKPSNTKVDKTVERKSCVECPPCPAPPAAAPSVFLFPPKPKDTLMISRTPEVTCVVVDVSHEDPEVQFNWYVDGVEVHNAKTKPREEQFNSTFRVVSVLTVVHQDWLNGKEYKCKVSNKGLPAPIEKTISKTKGQPREPQVYTLPPSREEMTKNQVSLTCLVKGFYPSDIAVEWESNGQPENNYKTTPPMLDSDGSFFLYSKLTVDKSRWQQGNVFSCSVMHEALHNHYTQKSLSLSPG
light: DIQMTQSPSSLSASVGDRVTITCRASENIYRNLAWYQQKPGKAPQLLLYAATNLADGVPSRFSGSGSGTDYTLTISSLQPEDFATYYCQHFWGTPWTFGQGTKVEIKRTVAAPSVFIFPPSDEQLKSGTASVVCLLNNFYPREAKVQWKVDNALQSGNSQESVTEQDSKDSTYSLSSTLTLSKADYEKHKVYACEVTHQGLSSPVTKSFNRGEC
notes: human Ig kappa; also called L1-6/HK4
B8: humanized antibody No. 134 (antibody, human IgG2)
heavy: B7 heavy with I2V, D62Q, D63G, K65T
light: B1 light
notes: as for B1
B9: humanized antibody No. 137 (antibody, human IgG2)
heavy: B7 heavy
light: B1 light
notes: as for B3
B10: humanized antibody No. 136 (antibody, human IgG2)
heavy: B7 heavy with I2V
light: B1 light
notes: as for B6
B11: humanized antibody No. 132 (antibody, human IgG2)
heavy: B7 heavy with D62Q, D63G, K65T
light: B1 light
notes: as for B2
B12: humanized antibody No. 133 (antibody, human IgG2)
heavy: B7 heavy with I2V, K46E, D62Q, D63G, K65T
light: B1 light
notes: as for B4
B13: humanized antibody No. 135 (antibody, human IgG2)
heavy: B7 heavy with I2V, K46E
light: B1 light
notes: as for B5
B14: antibody A (antibody, mouse IgG1, kappa, V domains shown)
VH: QIQLVQSGPELKKPGETVKISCKASGYTFTDYSMHWVKQAPGKGLKWMGWINTETGEPTYADDFKGRFAFSLETSASTAYLQINNLKNEDTATYFCARIPLYYYGSRYWYFDVWGAGTTVTVSS
VL: DIQMTQSPASLSVSVGETVTITCRASENIYRNLAWYQQKQGKSPQLLVYAATNLADGVPSRFSGSGSGTQYSLKINSLQSEDFGSYYCQHFWGTPWTFGGGTKLEIKR
notes: mouse IgG1 heavy chain, kappa light chain; purified from hybridoma supernatant; also called anti-EphA4 monoclonal antibody; antibody A-IgG

biological target: T1, human EphA3 extracellular region-SEAP-His protein (human, UniProt P29320 21-541); experiment: ELISA
T1 construct: extracellular domain; also called hEphA3-SEAP-His
T1 sequence (looked up): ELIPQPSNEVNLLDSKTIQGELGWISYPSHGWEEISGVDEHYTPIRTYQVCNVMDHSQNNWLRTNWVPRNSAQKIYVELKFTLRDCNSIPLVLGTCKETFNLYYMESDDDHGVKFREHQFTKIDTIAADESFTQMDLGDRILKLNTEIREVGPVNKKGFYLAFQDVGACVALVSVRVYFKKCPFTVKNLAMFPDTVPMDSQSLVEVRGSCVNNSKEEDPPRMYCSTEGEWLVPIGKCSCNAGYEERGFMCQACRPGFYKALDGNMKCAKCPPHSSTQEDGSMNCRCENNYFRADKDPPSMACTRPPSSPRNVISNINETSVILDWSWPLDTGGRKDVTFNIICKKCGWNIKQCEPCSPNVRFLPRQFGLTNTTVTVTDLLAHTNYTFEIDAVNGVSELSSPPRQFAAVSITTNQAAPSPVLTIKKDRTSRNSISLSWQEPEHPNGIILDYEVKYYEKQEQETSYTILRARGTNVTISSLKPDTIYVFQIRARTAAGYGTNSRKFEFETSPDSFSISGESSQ

| Binder | A450 as % of hEphA4-SEAP-His |
| --- | --- |
| B1 | 6.8% |
| B2 | 5.6% |
| B3 | 5.8% |
| B4 | 5.1% |
| B5 | 4.8% |
| B6 | 5.5% |
| B7 | 6.2% |
| B8 | 5% |
| B9 | 5.6% |
| B10 | 5.2% |
| B11 | 4.8% |
| B12 | 5% |
| B13 | 5% |

biological target: T2, human EphB4 extracellular region-SEAP-His protein (human, UniProt P54760 16-539); experiment: ELISA
T2 construct: extracellular domain; also called hEphB4-SEAP-His
T2 sequence (looked up): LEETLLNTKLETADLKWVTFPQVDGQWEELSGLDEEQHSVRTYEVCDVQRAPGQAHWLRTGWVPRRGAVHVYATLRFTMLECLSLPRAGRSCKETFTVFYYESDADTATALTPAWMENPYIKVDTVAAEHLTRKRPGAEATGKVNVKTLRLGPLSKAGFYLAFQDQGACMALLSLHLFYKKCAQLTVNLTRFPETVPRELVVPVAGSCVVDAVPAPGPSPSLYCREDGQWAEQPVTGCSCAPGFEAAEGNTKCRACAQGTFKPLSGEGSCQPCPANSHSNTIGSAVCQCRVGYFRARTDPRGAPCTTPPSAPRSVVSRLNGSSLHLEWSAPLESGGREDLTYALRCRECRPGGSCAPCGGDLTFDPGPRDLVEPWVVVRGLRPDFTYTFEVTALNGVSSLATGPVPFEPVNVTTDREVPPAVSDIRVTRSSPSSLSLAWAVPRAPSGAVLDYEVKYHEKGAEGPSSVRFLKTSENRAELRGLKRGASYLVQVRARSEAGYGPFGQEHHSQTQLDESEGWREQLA

| Binder | A450 as % of hEphA4-SEAP-His |
| --- | --- |
| B1 | 6.5% |
| B2 | 5.5% |
| B3 | 5.7% |
| B4 | 5% |
| B5 | 4.6% |
| B6 | 5.5% |
| B7 | 6.3% |
| B8 | 5.1% |
| B9 | 5.7% |
| B10 | 5.2% |
| B11 | 4.8% |
| B12 | 4.9% |
| B13 | 5.1% |

biological target: mouse EphA4 extracellular region-SEAP-His protein (mouse); experiment: competition ELISA, competitor mouse Ephrin A1-Fc
Protocol: Antibody A obtained in Example 1 was evaluated for its inhibitory activity against the binding between mouse EphA4 and its mouse ligand according to the following steps. Each well of a 96-well plate (Nunc) was coated with an anti-alkaline phosphatase antibody (Thermo Fisher Scientific). After incubation overnight at 4° C., each well was blocked with 1% BlockAce (DS Pharma Biomedical) at room temperature for 1 hour. After washing with 0.05% Tween 20/PBS (Thermo Fisher Scientific) three times, the mouse EphA4 extracellular region-SEAP-His protein obtained by the method of Example 1 was added (final concentration: 10 nM) to each well and incubated at room temperature for 1 hour. After washing three times, ligands and serially diluted antibody A (0, 0.001, 0.003, 0.01, 0.03, 0.1, 0.3, 1,3, 10, 30, 100, 300, and 1000 nM) or a known EphA4 inhibitor KYL peptide ([…], 0, 0.003, 0.01, 0.03, 0.1, 0.3, 1, 3, 10, 30, and 100 μM, its synthesis was outsourced to Hokkaido System Science) or compound 1 (0, 0.03, 0.1, 0.3, 1,3, 10, 30, 100, 300, and 1000 μM, Formula 1, Matrix Scientific) were added to each well. The ligands used were mouse Ephrin A1-Fc chimera (R&D Systems, final concentration: 20 nM) and mouse Ephrin B2-Fc chimera (R&D Systems, final concentration: 0.6 nM). […] The absorbance at 450 nm was read using a microplate reader (Molecular Devices).

Chain of mouse EphA4 extracellular region-SEAP-His protein (mouse) (chain, as listed by the source limits assumed): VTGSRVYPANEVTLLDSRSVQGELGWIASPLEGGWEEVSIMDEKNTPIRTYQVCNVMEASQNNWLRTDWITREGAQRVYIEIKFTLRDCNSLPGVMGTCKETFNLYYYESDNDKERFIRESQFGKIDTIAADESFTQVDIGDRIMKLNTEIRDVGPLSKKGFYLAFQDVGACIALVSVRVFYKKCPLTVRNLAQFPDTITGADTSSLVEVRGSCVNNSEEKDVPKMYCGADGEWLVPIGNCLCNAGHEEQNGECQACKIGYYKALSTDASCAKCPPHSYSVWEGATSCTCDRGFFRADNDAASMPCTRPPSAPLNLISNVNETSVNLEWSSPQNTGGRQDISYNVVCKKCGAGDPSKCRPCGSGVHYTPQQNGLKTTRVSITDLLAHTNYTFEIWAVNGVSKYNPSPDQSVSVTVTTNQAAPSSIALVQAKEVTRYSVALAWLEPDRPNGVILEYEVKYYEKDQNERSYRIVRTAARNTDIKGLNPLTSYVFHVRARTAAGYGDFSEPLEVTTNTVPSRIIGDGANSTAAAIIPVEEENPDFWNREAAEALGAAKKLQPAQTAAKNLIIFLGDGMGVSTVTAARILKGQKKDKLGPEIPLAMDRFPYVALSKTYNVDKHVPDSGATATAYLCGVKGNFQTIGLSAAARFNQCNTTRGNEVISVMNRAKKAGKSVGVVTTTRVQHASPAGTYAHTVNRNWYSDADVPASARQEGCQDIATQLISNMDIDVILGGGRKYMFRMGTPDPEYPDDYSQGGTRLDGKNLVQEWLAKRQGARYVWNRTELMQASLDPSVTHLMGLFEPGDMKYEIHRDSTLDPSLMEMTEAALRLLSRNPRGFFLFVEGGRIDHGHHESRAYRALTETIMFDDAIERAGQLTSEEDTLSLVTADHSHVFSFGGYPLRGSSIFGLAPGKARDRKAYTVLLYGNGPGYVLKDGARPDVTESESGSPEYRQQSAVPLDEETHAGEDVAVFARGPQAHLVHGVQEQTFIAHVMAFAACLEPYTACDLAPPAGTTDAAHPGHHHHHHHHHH

| Binder | IC50 |
| --- | --- |
| B14 | ~1.2 nM |

From patent US20190077860A1 (EISAI R AND D MANAGEMENT, published 2019)
